Laboratory results published in US20240010684A1 (Bayer, published 2024).
Bridges are numbered along the chain shown (N, C = ends). Where no end group is shown, it is not given here. [ ]: non-standard residue; d: D form. Oic = O=C(O)[C@@H]1C[C@@H]2CCCC[C@@H]2N1; tBuAla = CC(C)(C)C[C@H](N)C(=O)O; Pen = CC(C)(S)[C@H](N)C(=O)O; NMeC = CN[C@@H](CS)C(=O)O; Abu = CC[C@H](N)C(=O)O; Dap = NC[C@H](N)C(=O)O; PEG2 = NCCOCCOCCC(=O)O; Ahx = NCCCCCC(=O)O

T1: recombinant human MASP1 (amino acids 297-699, C-terminal His Tag) (human, UniProt P48740 297-699)
T1 sequence: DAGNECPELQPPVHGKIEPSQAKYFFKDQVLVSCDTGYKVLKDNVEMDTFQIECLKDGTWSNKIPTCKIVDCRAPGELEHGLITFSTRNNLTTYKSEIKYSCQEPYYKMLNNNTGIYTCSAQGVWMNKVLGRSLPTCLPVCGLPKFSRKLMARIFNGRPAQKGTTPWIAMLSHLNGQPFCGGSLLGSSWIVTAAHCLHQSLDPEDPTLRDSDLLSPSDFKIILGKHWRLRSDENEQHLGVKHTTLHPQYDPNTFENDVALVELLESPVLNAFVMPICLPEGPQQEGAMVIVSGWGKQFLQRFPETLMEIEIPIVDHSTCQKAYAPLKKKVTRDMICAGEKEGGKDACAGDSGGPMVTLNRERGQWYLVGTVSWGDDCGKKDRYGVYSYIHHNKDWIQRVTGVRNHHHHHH


How the values were obtained:
[1] = target: T1, recombinant human MASP1 (amino acids …); assay: cell-based or functional assay
[2] = target: recombinant human MASP2 (amino acids 297-686, C-terminal His Tag) (human, UniProt O00187 297-686); assay: cell-based or functional assay
Chain of recombinant human MASP2 (amino acids 297-686, C-terminal His Tag) (O00187 other isoform, or with tags, fused parts or gaps limits assumed): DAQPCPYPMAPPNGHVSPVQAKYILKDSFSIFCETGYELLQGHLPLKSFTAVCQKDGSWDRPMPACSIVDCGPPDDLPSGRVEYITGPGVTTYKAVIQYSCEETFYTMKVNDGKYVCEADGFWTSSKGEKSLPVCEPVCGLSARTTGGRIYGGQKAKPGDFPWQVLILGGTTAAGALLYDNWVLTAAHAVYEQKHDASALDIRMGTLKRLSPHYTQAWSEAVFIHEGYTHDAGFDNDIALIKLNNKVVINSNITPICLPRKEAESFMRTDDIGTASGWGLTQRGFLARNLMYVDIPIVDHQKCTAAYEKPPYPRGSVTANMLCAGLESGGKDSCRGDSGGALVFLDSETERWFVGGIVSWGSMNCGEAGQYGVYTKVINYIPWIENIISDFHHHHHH

Row | Binder | human MASP1 IC50 [1] [nM] | human MASP2 IC50 [2] [nM]
1 | cyclo(AGGICSRS[tBuAla]PPI[Pen]IPD) (disulfide 5-13; also: TFA salt) [Example 29: A**GGIC+SRS-((tBu)A)-PPI-(Pen)+-IPD**] | 8.6 | 68
2 | KGICSRSLPPICIPD (lactam 1-C; disulfide 4-12; also: TFA salt) [Example 22: K++GIC+SRSLPPIC+IPD**] | 190 | 91
3 | cyclo([Ahx]AICSRSLP[Oic]ICIP) (disulfide 4-12; also: TFA salt) [Example 25: (Ahx)**-AIC+SRSLP-(Oic)-IC+IP**] | 60 | 610
4 | cyclo([Ahx]AICSRS[tBuAla]PPI[Pen]IPD) (disulfide 4-12; also: TFA salt) [Example 27: (Ahx)**-AIC+SRS-((tBu)A)-PPI-(Pen)+-IPD**] | 9.1 | 37.5
5 | cyclo([Dap][Dap]GICSRSLPPICIPD) (disulfide 5-13; also: TFA salt) [Example 23: (Dap)**-(Dap)-GIC+SRSLPPIC+IPD**] | 180 | 20
6 | cyclo([PEG2]GICSRSLPPICIPD) (disulfide 4-12; also: TFA salt) [Example 24: (PEG1(10 atoms))**-GIC+SRSLPPIC+IPD**] | 110 | 210
7 | cyclo(AGAICSRS[tBuAla]PPI[Pen]IPD) (disulfide 5-13; also: TFA salt) [Example 26: A**GAIC+SRS-((tBu)A)-PPI-(Pen)+-IPD**] | 12 | 170
8 | cyclo(GSGICSRSLPPICIPDS) (disulfide 5-13; not fully specified; printed as G**SGIC+SRSLPPIC+IPDS**; also: TFA salt) [Example 21: G**SGIC+SRSLPPIC+IPDS**] | 170 | 120

The next lines start with the values.

Row | human MASP1 IC50 [1] [nM] | human MASP2 IC50 [2] [nM] | Binder
9 | 5.9 | 190 | AGAICSRSLP[Oic]I[Pen]IPD-NH2 (disulfide 5-13; lactam N-16; also: TFA salt) [Example 41: A**GAIC+SRSLP-(Oic)-I-(Pen)+-IPD++-NH2]
10 | 16 | 140 | GAICSRSLPPICIPD-NH2 (disulfide 4-12; lactam N-15; also: TFA salt) [Example 37: G**AIC+SRSLPPIC+IPD++-NH2]
11 | 13 | 200 | AGGICSRSLP[Oic]I[Pen]IPD-NH2 (disulfide 5-13; lactam N-16; also: TFA salt) [Example 42: A**GGIC+SRSLP-(Oic)-I-(Pen)+-IPD++-NH2]
12 | 22 | 63.5 | cyclo([Ahx]AICSRS[tBuAla]PPI[NMeC]IPD) (disulfide 4-12; also: TFA salt) [Example 32: (Ahx)**-AIC+SRS-((tBu)A)-PPI-((N-Me)C)+-IPD**]
13 | 20 | 44 | cyclo([Ahx][Abu]ICSRS[tBuAla]PPI[Pen]IPD) (disulfide 4-12; also: TFA salt) [Example 38: (Ahx)**-(Abu)-IC+SRS-((tBu)A)-PPI-(Pen)+-IPD**]
14 | 11 | 98 | cyclo([PEG2]AICSRS[tBuAla]PPI[Pen]IPD) (disulfide 4-12; also: TFA salt) [Example 34: (PEG1(10 atoms))**-AIC+SRS-((tBu)A)-PPI-(Pen)+-IPD**]
